13 molecules from patent US20140271457A1 (AbbVie / Abbott, published 2014) can be followed below.

First the molecules themselves.
B1: DVD3209 (bispecific antibody, IgG1)
VH: EVQLVESGGGLVQPGGSLRLSCAASGFSFSKYWLGWVRQAPGKGLEWVSDIYPGYDYTHYNEKFKDRFTISADTSKNTAYLQMNSLRAEDTAVYYCARSDGSSTYWGQGTLVTVSSASTKGPEVQLVESGGGLVQPGGSLRLSCAASGFTFSNYGVTWVRQAPGKGLEWVSMIWADGSTHYASSVKGRFTISRDNSKNTLYLQMNSLRAEDTAVYYCAREWQHGPVAYWGQGTLVTVSS
VL: DIQMTQSPSSLSASVGDRVTITCTSSQNIVHSNGNTYLEWYQQKPGKAPKLLIYKVSNRFSGVPSRFSGSGSGTDFTLTISSLQPEDFATYYCFQVSHVPYTFGQGTKVEIKRTVAAPDIQMTQSPSSLSASVGDRVTITCRASQLVSSAVAWYQQKPGKAPKLLIYWASARHTGVPSRFSGSGSGTDFTLTISSLQPEDFATYYCQQHYKTPFTFGQGTKLEIKR
B2: DVD3211 (bispecific antibody, IgG1)
VH: B1 VH
VL: DIQMTQSPSSLSASVGDRVTITCTSSQNIVHSNGNTYLEWYQQKPGKAPKLLIYKVSNRFSGVPSRFSGSGSGTDFTLTISSLQPEDFATYYCFQVSHVPYTFGQGTKVEIKRTVAAPSVFIFPPDIQMTQSPSSLSASVGDRVTITCRASQLVSSAVAWYQQKPGKAPKLLIYWASARHTGVPSRFSGSGSGTDFTLTISSLQPEDFATYYCQQHYKTPFTFGQGTKLEIKR
B3: DVD3219 (bispecific antibody, IgG1)
VH: B1 VH with T157E, M172G, S183D, S184T, G187S
VL: B1 VL with R142K, A171T, R172L, K211R
B4: DVD3212 (bispecific antibody, IgG1)
VH: EVQLVESGGGLVQPGGSLRLSCAASGFSFSKYWLGWVRQAPGKGLEWVSDIYPGYDYTHYNEKFKDRFTISADTSKNTAYLQMNSLRAEDTAVYYCARSDGSSTYWGQGTLVTVSSASTKGPSVFPLAPEVQLVESGGGLVQPGGSLRLSCAASGFTFSNYGVTWVRQAPGKGLEWVSMIWADGSTHYASSVKGRFTISRDNSKNTLYLQMNSLRAEDTAVYYCAREWQHGPVAYWGQGTLVTVSS
VL: B1 VL
B5: DVD3221 (bispecific antibody, IgG1)
VH: B1 VH with T157E, M172G, S183D, S184T, G187S
VL: B2 VL with R149K, A178T, R179L, K218R
B6: DVD3207 (bispecific antibody, IgG1)
VH: EVQLVESGGGLVQPGGSLRLSCAASGFTFSNYGVTWVRQAPGKGLEWVSMIWADGSTHYASSVKGRFTISRDNSKNTLYLQMNSLRAEDTAVYYCAREWQHGPVAYWGQGTLVTVSSASTKGPSVFPLAPEVQLVESGGGLVQPGGSLRLSCAASGFSFSKYWLGWVRQAPGKGLEWVSDIYPGYDYTHYNEKFKDRFTISADTSKNTAYLQMNSLRAEDTAVYYCARSDGSSTYWGQGTLVTVSS
VL: DIQMTQSPSSLSASVGDRVTITCRASQLVSSAVAWYQQKPGKAPKLLIYWASARHTGVPSRFSGSGSGTDFTLTISSLQPEDFATYYCQQHYKTPFTFGQGTKLEIKRTVAAPDIQMTQSPSSLSASVGDRVTITCTSSQNIVHSNGNTYLEWYQQKPGKAPKLLIYKVSNRFSGVPSRFSGSGSGTDFTLTISSLQPEDFATYYCFQVSHVPYTFGQGTKVEIKR
B7: DVD3217 (bispecific antibody, IgG1)
VH: B6 VH with T35E, M50G, S61D, S62T, G65S
VL: B6 VL with R24K, A53T, R54L, K93R
B8: DVD3206 (bispecific antibody, IgG1)
VH: EVQLVESGGGLVQPGGSLRLSCAASGFTFSNYGVTWVRQAPGKGLEWVSMIWADGSTHYASSVKGRFTISRDNSKNTLYLQMNSLRAEDTAVYYCAREWQHGPVAYWGQGTLVTVSSASTKGPEVQLVESGGGLVQPGGSLRLSCAASGFSFSKYWLGWVRQAPGKGLEWVSDIYPGYDYTHYNEKFKDRFTISADTSKNTAYLQMNSLRAEDTAVYYCARSDGSSTYWGQGTLVTVSS
VL: DIQMTQSPSSLSASVGDRVTITCRASQLVSSAVAWYQQKPGKAPKLLIYWASARHTGVPSRFSGSGSGTDFTLTISSLQPEDFATYYCQQHYKTPFTFGQGTKLEIKRTVAAPSVFIFPPDIQMTQSPSSLSASVGDRVTITCTSSQNIVHSNGNTYLEWYQQKPGKAPKLLIYKVSNRFSGVPSRFSGSGSGTDFTLTISSLQPEDFATYYCFQVSHVPYTFGQGTKVEIKR
B9: DVD3214 (bispecific antibody, IgG1)
VH: B8 VH with T35E, M50G, S61D, S62T, G65S
VL: B6 VL with R24K, A53T, R54L, K93R
B10: DVD3216 (bispecific antibody, IgG1)
VH: B8 VH with T35E, M50G, S61D, S62T, G65S
VL: B8 VL with R24K, A53T, R54L, K93R
B11: DVD3208 (bispecific antibody, IgG1)
VH: EVQLVESGGGLVQPGGSLRLSCAASGFSFSKYWLGWVRQAPGKGLEWVSDIYPGYDYTHYNEKFKDRFTISADTSKNTAYLQMNSLRAEDTAVYYCARSDGSSTYWGQGTLVTVSSGGGGSGGGGSEVQLVESGGGLVQPGGSLRLSCAASGFTFSNYGVTWVRQAPGKGLEWVSMIWADGSTHYASSVKGRFTISRDNSKNTLYLQMNSLRAEDTAVYYCAREWQHGPVAYWGQGTLVTVSS
VL: DIQMTQSPSSLSASVGDRVTITCTSSQNIVHSNGNTYLEWYQQKPGKAPKLLIYKVSNRFSGVPSRFSGSGSGTDFTLTISSLQPEDFATYYCFQVSHVPYTFGQGTKVEIKRGGSGGGGSGDIQMTQSPSSLSASVGDRVTITCRASQLVSSAVAWYQQKPGKAPKLLIYWASARHTGVPSRFSGSGSGTDFTLTISSLQPEDFATYYCQQHYKTPFTFGQGTKLEIKR
B12: DVD3218 (bispecific antibody, IgG1)
VH: B11 VH with T161E, M176G, S187D, S188T, G191S
VL: B11 VL with R146K, A175T, R176L, K215R
B13: DVD3213 (bispecific antibody, IgG1)
VH: EVQLVESGGGLVQPGGSLRLSCAASGFTFSNYGVEWVRQAPGKGLEWVSGIWADGSTHYADTVKSRFTISRDNSKNTLYLQMNSLRAEDTAVYYCAREWQHGPVAYWGQGTLVTVSSGGGGSGGGGSEVQLVESGGGLVQPGGSLRLSCAASGFSFSKYWLGWVRQAPGKGLEWVSDIYPGYDYTHYNEKFKDRFTISADTSKNTAYLQMNSLRAEDTAVYYCARSDGSSTYWGQGTLVTVSS
VL: DIQMTQSPSSLSASVGDRVTITCKASQLVSSAVAWYQQKPGKAPKLLIYWASTLHTGVPSRFSGSGSGTDFTLTISSLQPEDFATYYCQQHYRTPFTFGQGTKLEIKRGGSGGGGSGDIQMTQSPSSLSASVGDRVTITCTSSQNIVHSNGNTYLEWYQQKPGKAPKLLIYKVSNRFSGVPSRFSGSGSGTDFTLTISSLQPEDFATYYCFQVSHVPYTFGQGTKVEIKR

Positions count from the first letter of the chain named.

The target in the assay is Recombinant Human TNF-α/TNFSF1A (human, UniProt P01375 77-233). The assay is described as follows: cell-based or functional assay.
Recombinant Human TNF-α/TNFSF1A, sequence (P01375 77-233 limits assumed): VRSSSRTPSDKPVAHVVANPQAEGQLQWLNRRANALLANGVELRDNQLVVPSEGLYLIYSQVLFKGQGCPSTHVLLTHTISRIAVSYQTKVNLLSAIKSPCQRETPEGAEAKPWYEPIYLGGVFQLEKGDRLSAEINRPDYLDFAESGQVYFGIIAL
With B1, the “C-Terminal VD huTNFα Neutralization Assay IC50” value amounted to 0.536 nM.

As for B2, the “C-Terminal VD huTNFα Neutralization Assay IC50” value worked out at 0.014 nM.

As to B3, the “C-Terminal VD huTNFα Neutralization Assay IC50” value amounted to 2.1 nM.

For the molecule B4, the “C-Terminal VD huTNFα Neutralization Assay IC50” value amounted to 0.039 nM.

For the molecule B5, the “C-Terminal VD huTNFα Neutralization Assay IC50” value is 0.479 nM.

Consider B6, for which the “N-Terminal VD huTNFα Neutralization Assay IC50” value came out at 0.005 nM.

Turning to B7, the “N-Terminal VD huTNFα Neutralization Assay IC50” value came out at 0.008 nM.

Regarding B8, the “N-Terminal VD huTNFα Neutralization Assay IC50” value came to 0.001 nM.

Consider B9, for which the “N-Terminal VD huTNFα Neutralization Assay IC50” value turned out to be 0.02 nM.

Consider B10, for which the “N-Terminal VD huTNFα Neutralization Assay IC50” value was found to be 0.022 nM.

As to B11, the “C-Terminal VD huTNFα Neutralization Assay IC50” value was 0.172 nM.

For the molecule B12, the “C-Terminal VD huTNFα Neutralization Assay IC50” value worked out at 0.413 nM.

For the molecule B13, the “N-Terminal VD huTNFα Neutralization Assay IC50” value is 0.01 nM.
